Assay results from US6353097.

Legend:
[1] = target: C-terminal (201-243) cytoplasmic domain of the rat FcεRIβ, Gal 4 DNA binding domain fusion protein (pAS2-1-βC) (rat); assay: yeast two-hybrid, liquid β-galactosidase assay, strain Y187
[2] = target: rat FcεRI (α, β and γ subunits) on CHO-B12 cells (UniProt P12371)

Substance	LacZ reporter (β-galactosidase) activity, fold over the negative control pACT-27-66-OOF [1] [fold]	strength of the interaction by β-galactosidase activity, relative to p53 and SV40 [1] [per cent]	antigen-induced phosphorylation of receptor tyrosines [2]
full length Lyn A, Gal 4-activation domain-kinase fusion protein (from UniProt P04386 768-881) (enzyme)	3	1	–
full length Lyn B, Gal 4-activation domain-kinase fusion protein (from UniProt P04386 768-881) (enzyme)	3	1	–
full length, catalytically inactive Lyn B kinase (Lys279 to Arg), rat, expressed in CHO-B12 cells	–	–	20-75% less antigen-induced phosphorylation of receptor tyrosines than cells transfected with the vector alone
unique domain of Lyn A (amino acids 1-66), Gal 4-activation domain fusion protein (from UniProt Q07014 1-66)	3	1	–
unique domain of Lyn B (amino acids 1-45), Gal 4-activation domain fusion protein (from UniProt Q07014 1-66)	3	1	–
